Results: article PMC2858024, “Identification and molecular characterization of a novel flavin-free NADPH preferred azoreductase encoded by azoB in Pigmentiphaga kullae K24” (BMC Biochemistry, 2010)

Legend:
Assay in all cases: purified protein
purified protein [1] = substrate: NC(=O)C1=CN([C@@H]2O[C@H](COP(=O)(O)OP(=O)(O)OC[C@H]3O[C@@H](n4cnc5c(N)ncnc54)[C@H](O)[C@@H]3O)[C@@H](O)[C@H]2O)C=CC1; settings: apparent, Orange I 30 μM, potassium phosphate pH 6.8, room temperature (general assay)
purified protein [2] = substrate: NC(=O)C1=CN([C@@H]2O[C@H](COP(=O)(O)OP(=O)(O)OC[C@H]3O[C@@H](n4cnc5c(N)ncnc54)[C@H](OP(=O)(O)O)[C@@H]3O)[C@@H](O)[C@H]2O)C=CC1; settings: apparent, Orange I 30 μM, potassium phosphate pH 6.8, room temperature (general assay)
purified protein [3] = substrate: O=S(=O)(O)c1ccc(N=Nc2ccc(O)c3ccccc23)cc1; settings: apparent, co-substrate NADPH 1 mM, potassium phosphate pH 6.8, room temperature (general assay)

B1: AzoB (Pigmentiphaga kullae) (protein)
chain: MNIAIIGATGNVGSRLVNEALARGHHVTAIARHASRLAARPGLDTLDIDLADGAKLAGALRGKDAAISSVRFATSPLAAVLGPVRQAGLRRLLVVGGAGSLEVAPGAALVDTPTFPAEYKPEALAGRDWLNALRTEKDLDWTFLSPSALFVPGERTGTFRLGGDTLLTAADGRSWISMEDFAIAMLDEVEKPAHTGRRFTVGY
Km (purified protein [1]): 170 µM | Vmax (purified protein [1]): 17 µmol/min/mg | Km (purified protein [2]): 1.0 µM | Vmax (purified protein [2]): 33 µmol/min/mg | Km (purified protein [3]): 3.0 µM | Vmax (purified protein [3]): 36 µmol/min/mg
